This experiment has as its target T1, TNFR1 (Homo sapiens, UniProt P19438).
T1 chain: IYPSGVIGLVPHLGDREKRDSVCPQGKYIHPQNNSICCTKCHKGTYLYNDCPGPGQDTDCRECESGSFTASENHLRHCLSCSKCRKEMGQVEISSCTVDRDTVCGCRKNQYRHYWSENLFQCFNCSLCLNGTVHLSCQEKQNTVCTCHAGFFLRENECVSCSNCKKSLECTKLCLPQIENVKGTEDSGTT
Kind of experiment: yeast display SC50.

B1: E4A (designed binder)
chain: SMEAEVEKAAKEYEKKKKEAIEKHLEKLKAKDKEAAERFLKELEEAAKEYAKDEAKTMSEEEAKRRAKKYKEKVLLSELSEEEQKEIKEAEEKLVRTILKYVEEAAK
For B1, the “apparent Kd (screen)” value came to 0.539 nM.

B2: E42F (designed binder)
chain: SMEEEVEKAAKEYEKKKKEAIEKHLEKLKAKDKEAAERFLKFLEEAAKEYAKDEAKTMSEEEAKRRAKKYKEKVLLSELSEEEQKEIKEAEEKLVRTILKYVEEAAK
As for B2, the “apparent Kd (screen)” value turned out to be 12.5 nM.

B3: A9I (designed binder)
chain: SMEEEVEKIAKEYEKKKKEAIEKHLEKLKAKDKEAAERFLKELEEAAKEYAKDEAKTMSEEEAKRRAKKYKEKVLLSELSEEEQKEIKEAEEKLVRTILKYVEEAAK
Regarding B3, the “apparent Kd (screen)” value was found to be 0.446 nM.

B4: E86W (designed binder)
chain: SMEEEVEKAAKEYEKKKKEAIEKHLEKLKAKDKEAAERFLKELEEAAKEYAKDEAKTMSEEEAKRRAKKYKEKVLLSELSEEEQKWIKEAEEKLVRTILKYVEEAAK
As to B4, the “apparent Kd (screen)” value is 1.54 nM.

B5: K29D (designed binder)
chain: SMEEEVEKAAKEYEKKKKEAIEKHLEKLDAKDKEAAERFLKELEEAAKEYAKDEAKTMSEEEAKRRAKKYKEKVLLSELSEEEQKEIKEAEEKLVRTILKYVEEAAK
As to B5, the “apparent Kd (screen)” value was determined as 0.49 nM.

B6: K85I (designed binder)
chain: SMEEEVEKAAKEYEKKKKEAIEKHLEKLKAKDKEAAERFLKELEEAAKEYAKDEAKTMSEEEAKRRAKKYKEKVLLSELSEEEQIEIKEAEEKLVRTILKYVEEAAK
With B6, the “apparent Kd (screen)” value came to 0.539 nM.

B7: E104C (designed binder)
chain: SMEEEVEKAAKEYEKKKKEAIEKHLEKLKAKDKEAAERFLKELEEAAKEYAKDEAKTMSEEEAKRRAKKYKEKVLLSELSEEEQKEIKEAEEKLVRTILKYVECAAK
As for B7, the “apparent Kd (screen)” value was found to be 1.27 nM.

B8: E72K (designed binder)
chain: SMEEEVEKAAKEYEKKKKEAIEKHLEKLKAKDKEAAERFLKELEEAAKEYAKDEAKTMSEEEAKRRAKKYKKKVLLSELSEEEQKEIKEAEEKLVRTILKYVEEAAK
In the case of B8, the “apparent Kd (screen)” value is 9.41 nM.

B9: L28N (designed binder)
chain: SMEEEVEKAAKEYEKKKKEAIEKHLEKNKAKDKEAAERFLKELEEAAKEYAKDEAKTMSEEEAKRRAKKYKEKVLLSELSEEEQKEIKEAEEKLVRTILKYVEEAAK
In the case of B9, the “apparent Kd (screen)” value was determined as 1.16 nM.

B10: Y13T (designed binder)
chain: SMEEEVEKAAKETEKKKKEAIEKHLEKLKAKDKEAAERFLKELEEAAKEYAKDEAKTMSEEEAKRRAKKYKEKVLLSELSEEEQKEIKEAEEKLVRTILKYVEEAAK
Take B10: the “apparent Kd (screen)” value stood at 1.69 nM.

B11: L79A (designed binder)
chain: SMEEEVEKAAKEYEKKKKEAIEKHLEKLKAKDKEAAERFLKELEEAAKEYAKDEAKTMSEEEAKRRAKKYKEKVLLSEASEEEQKEIKEAEEKLVRTILKYVEEAAK
Consider B11, for which the “apparent Kd (screen)” value is 2.73 nM.

B12: L99E (designed binder)
chain: SMEEEVEKAAKEYEKKKKEAIEKHLEKLKAKDKEAAERFLKELEEAAKEYAKDEAKTMSEEEAKRRAKKYKEKVLLSELSEEEQKEIKEAEEKLVRTIEKYVEEAAK
For the molecule B12, the “apparent Kd (screen)” value came out at 12.5 nM.

B13: V6N (designed binder)
chain: SMEEENEKAAKEYEKKKKEAIEKHLEKLKAKDKEAAERFLKELEEAAKEYAKDEAKTMSEEEAKRRAKKYKEKVLLSELSEEEQKEIKEAEEKLVRTILKYVEEAAK
B13: the “apparent Kd (screen)” value came to 2.73 nM.

B14: T57K (designed binder)
chain: SMEEEVEKAAKEYEKKKKEAIEKHLEKLKAKDKEAAERFLKELEEAAKEYAKDEAKKMSEEEAKRRAKKYKEKVLLSELSEEEQKEIKEAEEKLVRTILKYVEEAAK
In the case of B14, the “apparent Kd (screen)” value is 0.446 nM.

B15: R66V (designed binder)
chain: SMEEEVEKAAKEYEKKKKEAIEKHLEKLKAKDKEAAERFLKELEEAAKEYAKDEAKTMSEEEAKRVAKKYKEKVLLSELSEEEQKEIKEAEEKLVRTILKYVEEAAK
Turning to B15, the “apparent Kd (screen)” value was 18.3 nM.

B16: V102C (designed binder)
chain: SMEEEVEKAAKEYEKKKKEAIEKHLEKLKAKDKEAAERFLKELEEAAKEYAKDEAKTMSEEEAKRRAKKYKEKVLLSELSEEEQKEIKEAEEKLVRTILKYCEEAAK
B16: the “apparent Kd (screen)” value turned out to be 1.4 nM.

B17: A67R (designed binder)
chain: SMEEEVEKAAKEYEKKKKEAIEKHLEKLKAKDKEAAERFLKELEEAAKEYAKDEAKTMSEEEAKRRRKKYKEKVLLSELSEEEQKEIKEAEEKLVRTILKYVEEAAK
Take B17: the “apparent Kd (screen)” value is 7.07 nM.

B18: S1I (designed binder)
chain: IMEEEVEKAAKEYEKKKKEAIEKHLEKLKAKDKEAAERFLKELEEAAKEYAKDEAKTMSEEEAKRRAKKYKEKVLLSELSEEEQKEIKEAEEKLVRTILKYVEEAAK
Take B18: the “apparent Kd (screen)” value is 0.79 nM.

B19: Y50G (designed binder)
chain: SMEEEVEKAAKEYEKKKKEAIEKHLEKLKAKDKEAAERFLKELEEAAKEGAKDEAKTMSEEEAKRRAKKYKEKVLLSELSEEEQKEIKEAEEKLVRTILKYVEEAAK
Take B19: the “apparent Kd (screen)” value amounted to 10.4 nM.

B20: A35S (designed binder)
chain: SMEEEVEKAAKEYEKKKKEAIEKHLEKLKAKDKESAERFLKELEEAAKEYAKDEAKTMSEEEAKRRAKKYKEKVLLSELSEEEQKEIKEAEEKLVRTILKYVEEAAK
As for B20, the “apparent Kd (screen)” value worked out at 0.79 nM.

B21: E60W (designed binder)
chain: SMEEEVEKAAKEYEKKKKEAIEKHLEKLKAKDKEAAERFLKELEEAAKEYAKDEAKTMSWEEAKRRAKKYKEKVLLSELSEEEQKEIKEAEEKLVRTILKYVEEAAK
B21: the “apparent Kd (screen)” value was found to be 0.446 nM.

B22: E83L (designed binder)
chain: SMEEEVEKAAKEYEKKKKEAIEKHLEKLKAKDKEAAERFLKELEEAAKEYAKDEAKTMSEEEAKRRAKKYKEKVLLSELSEELQKEIKEAEEKLVRTILKYVEEAAK
On to B22, for which the “apparent Kd (screen)” value was 1.27 nM.

B23: S77D (designed binder)
chain: SMEEEVEKAAKEYEKKKKEAIEKHLEKLKAKDKEAAERFLKELEEAAKEYAKDEAKTMSEEEAKRRAKKYKEKVLLDELSEEEQKEIKEAEEKLVRTILKYVEEAAK
With B23, the “apparent Kd (screen)” value worked out at 11.4 nM.

B24: I98Y (designed binder)
chain: SMEEEVEKAAKEYEKKKKEAIEKHLEKLKAKDKEAAERFLKELEEAAKEYAKDEAKTMSEEEAKRRAKKYKEKVLLSELSEEEQKEIKEAEEKLVRTYLKYVEEAAK
Regarding B24, the “apparent Kd (screen)” value worked out at 5.84 nM.

B25: A36P (designed binder)
chain: SMEEEVEKAAKEYEKKKKEAIEKHLEKLKAKDKEAPERFLKELEEAAKEYAKDEAKTMSEEEAKRRAKKYKEKVLLSELSEEEQKEIKEAEEKLVRTILKYVEEAAK
On to B25, for which the “apparent Kd (screen)” value came out at 0.446 nM.

The record behind these values is PMC12416549 (2024).
